This note sets out measurements from PMC3937055.

This assay deals with caveolin, endogenous in mouse hippocampal primary neurons (mouse (endogenous in hippocampal primary neurons)) (UniProt P49817). Briefly: co-IP; competition: synthetic Tat peptides incubated with living hippocampal primary neurons for 45 min before lysis; anti-caveolin immunoprecipitate blotted for mGlu1 receptor, band intensity normalised to control (n=3).
Chain of UniProt P49817 (P49817 whole entry): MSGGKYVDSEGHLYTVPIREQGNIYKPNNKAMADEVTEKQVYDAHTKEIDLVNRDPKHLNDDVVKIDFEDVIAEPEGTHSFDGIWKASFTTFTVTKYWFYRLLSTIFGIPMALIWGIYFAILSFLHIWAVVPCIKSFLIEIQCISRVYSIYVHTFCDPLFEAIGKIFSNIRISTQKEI

On to “Tat-blocking peptide (Tat peptide fused with caveolin binding site of mGlu1α receptor)”, for which the mGlu1α receptor co-precipitated with caveolin in the presence of the peptide, % of control was 73.3 % of control.
